Common to all, as to test: EMSA
Series [1] has as its target T1, PU.1 (UniProt P17947 1-270).
The target of series [2] is T1, PU.1. The source holds these as a separate data set.
Series [3] concerns the target T1, PU.1. This is another data set of the same source.

Where two headings read alike, the source gives them in different places.

B1: rs1320496-T (dsDNA)
DNA 1: CAGGAGGGGAAGTGGGATGCATGAGAAGAGGACGCGTTTC
DNA 2: GAAACGCGTCCTCTTCTCATGCATCCCACTTCCCCTCCTG
Regarding B1, in the series with PU.1 [1], the binding result was “binds”.

B2: rs1412444-T (dsDNA)
DNA 1: CTATTTGCCTTTAAACACTGGAAATAACACCAGTGGC
DNA 2: GCCACTGGTGTTATTTCCAGTGTTTAAAGGCAAATAG
Regarding B2, in the series with PU.1 [2], the binding result is recorded as “binds”.

B3: rs1412445-T (dsDNA)
DNA 1: GGTCATTAGGAGGATGTTGGTGCTATTAATAATAGAG
DNA 2: CTCTATTATTAATAGCACCAACATCCTCCTAATGACC
As to B3, the binding result with PU.1 [3] is “no binding”.
